From the Human Domainome abundance scans (Beltran et al. 2025)
± gives the uncertainty stated by the source.

B1: Segment polarity protein dishevelled homolog DVL-3, residues 2 to 81; numbered along this chain, Q92997 (parent)
chain: GETKIIYHLDGQETPYLVKLPLPAERVTLADFKGVLQRPSYKFFFKSMDDDFGVVKEEISDDNAKLPCFNGRVVSWLVSA
B2: Nucleosome-remodeling factor subunit BPTF, residues 2862 to 2918; numbered along this chain, Q12830 (parent)
chain: TKKDTKLYCICKTPYDESKFYIGCDRCQNWYHGRCVGILQSEAELIDEYVCPQCQST

Variants of: B1
Assay: abundance fitness (aPCA) (normalised: wild type 0, dead -1); higher = more abundant; growth selection in yeast, the domain comes from the species named
Settings: Homo sapiens

In order of falling abundance fitness:
1. I6Y  0.248 ± 0.07
2. H8F  0.23 ± 0.078
3. G11D  0.192 ± 0.061
4. G1K  0.191 ± 0.11
5. H8Y  0.19 ± 0.072
6. L9V  0.167 ± 0.043
7. L9I  0.163 ± 0.072
8. I6E  0.153 ± 0.053
9. G1F  0.109 ± 0.23
10. G11N  0.095 ± 0.082
11. E2N  0.052 ± 0.09
12. H8W  0.027 ± 0.063
13. G1P  0.022 ± 0.24
14. D10P  0.002 ± 0.064
15. I6F  -0.015 ± 0.08
16. D10E  -0.016 ± 0.052
17. G1Q  -0.035 ± 0.16
18. E2C  -0.038 ± 0.08
19. E2Y  -0.049 ± 0.083
20. G1M  -0.074 ± 0.14
21. I6H  -0.076 ± 0.11
22. E2T  -0.079 ± 0.066
23. E2S  -0.082 ± 0.059
24. G1A  -0.084 ± 0.074
25. G11E  -0.112 ± 0.061
26. E2W  -0.121 ± 0.076
27. G1Y  -0.124 ± 0.21
28. E2V  -0.129 ± 0.051
29. G1C  -0.13 ± 0.13
30. I6T  -0.132 ± 0.074
31. G1L  -0.132 ± 0.11
32. I6V  -0.135 ± 0.05
33. I6L  -0.152 ± 0.055
34. E2H  -0.164 ± 0.1
35. G1R  -0.179 ± 0.068
36. E2Q  -0.194 ± 0.085
37. G1T  -0.198 ± 0.12
38. G1D  -0.205 ± 0.1
39. G1W  -0.222 ± 0.098
40. H8P  -0.225 ± 0.1
41. I5V  -0.265 ± 0.058
42. I6Q  -0.28 ± 0.088
43. E2M  -0.281 ± 0.093
44. L9M  -0.283 ± 0.079
45. G1I  -0.324 ± 0.26
46. H8R  -0.326 ± 0.062
47. G11C  -0.333 ± 0.1
48. E2L  -0.341 ± 0.07
49. G11A  -0.356 ± 0.064
50. L9S  -0.366 ± 0.068
51. Y7V  -0.37 ± 0.064
52. G11K  -0.384 ± 0.096
53. G11L  -0.389 ± 0.068
54. I6S  -0.431 ± 0.073
55. I5T  -0.437 ± 0.1
56. G1N  -0.444 ± 0.26
57. T3D  -0.448 ± 0.11
58. I6N  -0.451 ± 0.13
59. T3F  -0.452 ± 0.14
60. H8M  -0.455 ± 0.11
61. I6C  -0.467 ± 0.1
62. G11H  -0.471 ± 0.19
63. D10T  -0.471 ± 0.088
64. E2P  -0.491 ± 0.11
65. H8V  -0.494 ± 0.075
66. I6M  -0.502 ± 0.097
67. H8T  -0.503 ± 0.1
68. D10N  -0.507 ± 0.14
69. T3P  -0.509 ± 0.092
70. E2A  -0.511 ± 0.077
71. D10A  -0.513 ± 0.08
72. I5H  -0.514 ± 0.17
73. E2D  -0.516 ± 0.11
74. L9A  -0.518 ± 0.075
75. L9C  -0.528 ± 0.12
76. L9D  -0.535 ± 0.13
77. I5C  -0.535 ± 0.11
78. H8L  -0.542 ± 0.076
79. I5P  -0.543 ± 0.11
80. L9E  -0.546 ± 0.092
81. H8K  -0.548 ± 0.11
82. D10H  -0.568 ± 0.16
83. L9K  -0.574 ± 0.095
84. L9F  -0.575 ± 0.14
85. I6A  -0.578 ± 0.078
86. E2R  -0.579 ± 0.072
87. L9Y  -0.581 ± 0.15
88. I6D  -0.585 ± 0.13
89. G11F  -0.586 ± 0.16
90. T3C  -0.59 ± 0.12
91. Y7E  -0.608 ± 0.13
92. G11M  -0.617 ± 0.12
93. H8S  -0.617 ± 0.095
94. E2G  -0.62 ± 0.068
95. L9G  -0.622 ± 0.063
96. I6G  -0.625 ± 0.057
97. I5W  -0.625 ± 0.073
98. T3S  -0.633 ± 0.085
99. T3K  -0.635 ± 0.12
100. Y7N  -0.636 ± 0.16
101. T3E  -0.638 ± 0.1
102. I5G  -0.643 ± 0.056
103. H8N  -0.661 ± 0.17
104. Y7C  -0.663 ± 0.14
105. T3R  -0.665 ± 0.075
106. G11P  -0.668 ± 0.12
107. H8G  -0.668 ± 0.081
108. D10F  -0.677 ± 0.2
109. D10S  -0.68 ± 0.086
110. H8I  -0.681 ± 0.17
111. T3M  -0.683 ± 0.12
112. T3A  -0.684 ± 0.089
113. L9P  -0.695 ± 0.13
114. D10R  -0.696 ± 0.069
115. I5L  -0.698 ± 0.085
116. L9R  -0.704 ± 0.068
117. D10G  -0.709 ± 0.077
118. D10C  -0.709 ± 0.16
119. E2K  -0.723 ± 0.13
120. D10V  -0.726 ± 0.085
121. T3L  -0.727 ± 0.083
122. I6R  -0.728 ± 0.069
123. Y7T  -0.731 ± 0.12
124. Y7L  -0.735 ± 0.083
125. Y7I  -0.74 ± 0.14
126. H8Q  -0.747 ± 0.15
127. Y7K  -0.749 ± 0.14
128. I5S  -0.765 ± 0.099
129. L9T  -0.767 ± 0.12
130. I5E  -0.767 ± 0.11
131. H8A  -0.772 ± 0.11
132. Y7H  -0.78 ± 0.26
133. I5R  -0.784 ± 0.069
134. D10K  -0.791 ± 0.13
135. I5M  -0.803 ± 0.12
136. Y7P  -0.806 ± 0.15
137. Y7R  -0.811 ± 0.086
138. I5F  -0.815 ± 0.17
139. I6P  -0.816 ± 0.17
140. T3N  -0.822 ± 0.18
141. D10M  -0.822 ± 0.15
142. L9Q  -0.825 ± 0.13
143. T3H  -0.831 ± 0.18
144. D10I  -0.831 ± 0.23
145. Y7G  -0.833 ± 0.09
146. I5A  -0.837 ± 0.11
147. D10L  -0.848 ± 0.089
148. T3G  -0.853 ± 0.076
149. D10W  -0.866 ± 0.12
150. Y7W  -0.869 ± 0.14
151. Y7A  -0.882 ± 0.14
152. Y7S  -0.884 ± 0.11
153. L9N  -0.888 ± 0.23
154. I6K  -0.892 ± 0.13
155. I5N  -0.916 ± 0.24
156. Y7D  -0.947 ± 0.19
157. T3I  -0.962 ± 0.25
158. I5Y  -0.969 ± 0.23
159. I5D  -0.973 ± 0.18
160. Y7Q  -0.975 ± 0.19
161. T3Q  -1.05 ± 0.2
162. G11I  -1.06 ± 0.31
163. H8E  -1.06 ± 0.21
164. L9H  -1.14 ± 0.38
165. I5K  -1.16 ± 0.21
166. H8C  -1.19 ± 0.3

Variants of: B2
Assay: as above
Settings: Homo sapiens

Q55W gave an abundance fitness of -0.245 ± 0.099.
